For assay [1], the target named is human BTN3A as expressed on human cells (PBMCs, Daudi Burkitt's lymphoma cells, AML cells, monocytes) (human) (UniProt O00481). Kind of assay: flow cytometry on human PBMCs. (In flow cytometry, cells or beads pass a laser one at a time.)
Assay [2] shares this target. As to the kind of experiment: flow cytometry on Daudi Burkitt's lymphoma cells.
For assay [3] the target is unchanged. Kind of assay: cell-based or functional assay.
Assay [4] has as its target human BTN3A1 antigen (Sino Biological cat. no. 15973-H08H) (human) (UniProt O00481). Kind of assay: SPR, Biacore T200 multi-cycle kinetics; antibody captured on Protein A, BTN3A1 as analyte. On the technique in general: In SPR one partner is held on a chip, and binding of the other changes the refractive index at the surface.
The target of assay [5] is cynomolgus BTN3A as expressed on cynomolgus PBMCs (cynomolgus). Kind of assay: flow cytometry on cynomolgus PBMCs.

Sequence of human BTN3A1 antigen (Sino Biological cat. no. 15973-H08H) (human) (O00481 30-254 limits assumed): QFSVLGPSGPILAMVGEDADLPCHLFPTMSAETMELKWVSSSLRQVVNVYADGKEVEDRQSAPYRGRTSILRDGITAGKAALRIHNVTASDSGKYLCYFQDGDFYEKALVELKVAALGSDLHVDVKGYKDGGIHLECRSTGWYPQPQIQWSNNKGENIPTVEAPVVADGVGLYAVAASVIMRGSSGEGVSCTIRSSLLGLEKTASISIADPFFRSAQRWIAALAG

mAb 20.1, parent murine antibody returned an EC50 in assay [1] of 3.02 µg/mL. The EC50 in assay [2] is 1.19 µg/mL. In assay [3], this substance showed a Functional assay (AML resistant) (γδT cell-based, EC50, µg/mL) of 0.18 µg/mL; a Functional assay (AML sensitive) (γδT cell-based, EC50, µg/mL) of 0.05 µg/mL; a Functional assay (Daudi) (γδT cell-based, EC50, µg/mL) of 0.02 µg/mL; a Vγ9Vδ2 T cell degranulation with PBMCs from C. burnetii patients, 20.1 at 10 µg/ml of 24.1%. In assay [3], the Vγ9Vδ2 T cell degranulation with PBMCs from healthy donors, 20.1 at 10 µg/ml worked out at 3.24%; the Vγ9Vδ2 T cell degranulation, Mean % CD107+ cells, monocytes infected with C. burnetii Guiana, 20.1 at 10 µg/ml (isotype 37.23) (% CD107+ cells) came out at 71.5; the Vγ9Vδ2 T cell degranulation, Mean % CD107+ cells, monocytes infected with C. burnetii NM1, 20.1 at 10 µg/ml (isotype 42.1) (% CD107+ cells) came out at 67.2; the Vγ9Vδ2 T cell degranulation, Mean % CD107+ cells, non stimulated monocytes, 20.1 at 10 µg/ml (isotype 8.59) (% CD107+ cells) turned out to be 45.8. The same substance showed a Kd in assay [4] of 0.234 nM. In assay [5], this substance registered a concentration giving a half-maximal response (EC50) of 4.06 µg/mL.

What is called EC50 is the concentration needed to bring the measured effect to its halfway point. A lower EC50 goes with higher potency in that assay. As a reminder, the Kd is a measure of binding affinity in units of concentration.

These data come from patent publication US20250129165A1.
